{
  "source": "the supplement of paper PMC10567573",
  "parents": {"B1": {"name": "TNNI2 (parent)", "chain": "DWRKNIEEKSGMEGRKKMFESES"}},
  "data": [
    {"variants_of": "B1", "assay": "protein stability index of a GFP-peptide fusion (GPS, HEK-293T) (PSI 1-6); higher = more stable", "conditions": "c terminus: native", "values": [
      {"variant": "DWRKNREEKSGMEGRKKMFESES", "note": "[I6R]", "protein stability index": 2.09},
      {"variant": "DWRKNSEEKSGMEGRKKMFESES", "note": "[I6S]", "protein stability index": 2.54},
      {"variant": "DWRKNTEEKSGMEGRKKMFESES", "note": "[I6T]", "protein stability index": 3.26},
      {"variant": "DWRKNVEEKSGMEGRKKMFESES", "note": "[I6V]", "protein stability index": 2.09},
      {"variant": "DWRKNYEEKSGMEGRKKMFESES", "note": "[I6Y]", "protein stability index": 1.88},
      {"variant": "DWRKNIAEKSGMEGRKKMFESES", "note": "[E7A]", "protein stability index": 2.16},
      {"variant": "DWRKNICEKSGMEGRKKMFESES", "note": "[E7C]", "protein stability index": 2.01},
      {"variant": "DWRKNIDEKSGMEGRKKMFESES", "note": "[E7D]", "protein stability index": 3},
      {"variant": "DWRKNIFEKSGMEGRKKMFESES", "note": "[E7F]", "protein stability index": 1.77},
      {"variant": "DWRKNIGEKSGMEGRKKMFESES", "note": "[E7G]", "protein stability index": 1.83},
      {"variant": "DWRKNIHEKSGMEGRKKMFESES", "note": "[E7H]", "protein stability index": 1.84},
      {"variant": "DWRKNIIEKSGMEGRKKMFESES", "note": "[E7I]", "protein stability index": 1.75},
      {"variant": "DWRKNIKEKSGMEGRKKMFESES", "note": "[E7K]", "protein stability index": 2.62},
      {"variant": "DWRKNILEKSGMEGRKKMFESES", "note": "[E7L]", "protein stability index": 2.17},
      {"variant": "DWRKNIMEKSGMEGRKKMFESES", "note": "[E7M]", "protein stability index": 2.25},
      {"variant": "DWRKNINEKSGMEGRKKMFESES", "note": "[E7N]", "protein stability index": 2.79},
      {"variant": "DWRKNIPEKSGMEGRKKMFESES", "note": "[E7P]", "protein stability index": 2.85},
      {"variant": "DWRKNIQEKSGMEGRKKMFESES", "note": "[E7Q]", "protein stability index": 2.56},
      {"variant": "DWRKNIREKSGMEGRKKMFESES", "note": "[E7R]", "protein stability index": 2.8},
      {"variant": "DWRKNISEKSGMEGRKKMFESES", "note": "[E7S]", "protein stability index": 1.76},
      {"variant": "DWRKNITEKSGMEGRKKMFESES", "note": "[E7T]", "protein stability index": 2.82},
      {"variant": "DWRKNIVEKSGMEGRKKMFESES", "note": "[E7V]", "protein stability index": 2.26},
      {"variant": "DWRKNIWEKSGMEGRKKMFESES", "note": "[E7W]", "protein stability index": 2.01},
      {"variant": "DWRKNIYEKSGMEGRKKMFESES", "note": "[E7Y]", "protein stability index": 2.12},
      {"variant": "DWRKNIEAKSGMEGRKKMFESES", "note": "[E8A]", "protein stability index": 2.2},
      {"variant": "DWRKNIECKSGMEGRKKMFESES", "note": "[E8C]", "protein stability index": 1.63},
      {"variant": "DWRKNIEFKSGMEGRKKMFESES", "note": "[E8F]", "protein stability index": 2.06},
      {"variant": "DWRKNIEGKSGMEGRKKMFESES", "note": "[E8G]", "protein stability index": 2.06},
      {"variant": "DWRKNIEHKSGMEGRKKMFESES", "note": "[E8H]", "protein stability index": 2.09},
      {"variant": "DWRKNIEIKSGMEGRKKMFESES", "note": "[E8I]", "protein stability index": 2.41},
      {"variant": "DWRKNIEKKSGMEGRKKMFESES", "note": "[E8K]", "protein stability index": 2.74},
      {"variant": "DWRKNIELKSGMEGRKKMFESES", "note": "[E8L]", "protein stability index": 2.47},
      {"variant": "DWRKNIEMKSGMEGRKKMFESES", "note": "[E8M]", "protein stability index": 1.5},
      {"variant": "DWRKNIENKSGMEGRKKMFESES", "note": "[E8N]", "protein stability index": 3.61},
      {"variant": "DWRKNIEPKSGMEGRKKMFESES", "note": "[E8P]", "protein stability index": 3.03},
      {"variant": "DWRKNIEQKSGMEGRKKMFESES", "note": "[E8Q]", "protein stability index": 2.17},
      {"variant": "DWRKNIERKSGMEGRKKMFESES", "note": "[E8R]", "protein stability index": 1.84},
      {"variant": "DWRKNIESKSGMEGRKKMFESES", "note": "[E8S]", "protein stability index": 1.99},
      {"variant": "DWRKNIETKSGMEGRKKMFESES", "note": "[E8T]", "protein stability index": 2.17},
      {"variant": "DWRKNIEVKSGMEGRKKMFESES", "note": "[E8V]", "protein stability index": 2.66},
      {"variant": "DWRKNIEWKSGMEGRKKMFESES", "note": "[E8W]", "protein stability index": 1.52},
      {"variant": "DWRKNIEYKSGMEGRKKMFESES", "note": "[E8Y]", "protein stability index": 2.16},
      {"variant": "DWRKNIEECSGMEGRKKMFESES", "note": "[K9C]", "protein stability index": 1.84},
      {"variant": "DWRKNIEEDSGMEGRKKMFESES", "note": "[K9D]", "protein stability index": 1.73},
      {"variant": "DWRKNIEEESGMEGRKKMFESES", "note": "[K9E]", "protein stability index": 2.13},
      {"variant": "DWRKNIEEFSGMEGRKKMFESES", "note": "[K9F]", "protein stability index": 2.44},
      {"variant": "DWRKNIEEHSGMEGRKKMFESES", "note": "[K9H]", "protein stability index": 2.4},
      {"variant": "DWRKNIEEISGMEGRKKMFESES", "note": "[K9I]", "protein stability index": 2.39},
      {"variant": "DWRKNIEELSGMEGRKKMFESES", "note": "[K9L]", "protein stability index": 2.51},
      {"variant": "DWRKNIEENSGMEGRKKMFESES", "note": "[K9N]", "protein stability index": 2.58},
      {"variant": "DWRKNIEEPSGMEGRKKMFESES", "note": "[K9P]", "protein stability index": 1.75},
      {"variant": "DWRKNIEEQSGMEGRKKMFESES", "note": "[K9Q]", "protein stability index": 1.68},
      {"variant": "DWRKNIEESSGMEGRKKMFESES", "note": "[K9S]", "protein stability index": 3.35},
      {"variant": "DWRKNIEETSGMEGRKKMFESES", "note": "[K9T]", "protein stability index": 2.54},
      {"variant": "DWRKNIEEWSGMEGRKKMFESES", "note": "[K9W]", "protein stability index": 2.34},
      {"variant": "DWRKNIEEYSGMEGRKKMFESES", "note": "[K9Y]", "protein stability index": 1.93},
      {"variant": "DWRKNIEEKAGMEGRKKMFESES", "note": "[S10A]", "protein stability index": 1.7},
      {"variant": "DWRKNIEEKCGMEGRKKMFESES", "note": "[S10C]", "protein stability index": 1.81},
      {"variant": "DWRKNIEEKEGMEGRKKMFESES", "note": "[S10E]", "protein stability index": 2.28},
      {"variant": "DWRKNIEEKGGMEGRKKMFESES", "note": "[S10G]", "protein stability index": 2.42},
      {"variant": "DWRKNIEEKHGMEGRKKMFESES", "note": "[S10H]", "protein stability index": 2.29},
      {"variant": "DWRKNIEEKIGMEGRKKMFESES", "note": "[S10I]", "protein stability index": 2.89},
      {"variant": "DWRKNIEEKKGMEGRKKMFESES", "note": "[S10K]", "protein stability index": 2.18},
      {"variant": "DWRKNIEEKLGMEGRKKMFESES", "note": "[S10L]", "protein stability index": 1.58},
      {"variant": "DWRKNIEEKMGMEGRKKMFESES", "note": "[S10M]", "protein stability index": 2.16},
      {"variant": "DWRKNIEEKNGMEGRKKMFESES", "note": "[S10N]", "protein stability index": 2.54},
      {"variant": "DWRKNIEEKPGMEGRKKMFESES", "note": "[S10P]", "protein stability index": 2.52},
      {"variant": "DWRKNIEEKQGMEGRKKMFESES", "note": "[S10Q]", "protein stability index": 2.97},
      {"variant": "DWRKNIEEKRGMEGRKKMFESES", "note": "[S10R]", "protein stability index": 2.55},
      {"variant": "DWRKNIEEKTGMEGRKKMFESES", "note": "[S10T]", "protein stability index": 2.47},
      {"variant": "DWRKNIEEKVGMEGRKKMFESES", "note": "[S10V]", "protein stability index": 1.02},
      {"variant": "DWRKNIEEKYGMEGRKKMFESES", "note": "[S10Y]", "protein stability index": 2.82},
      {"variant": "DWRKNIEEKSAMEGRKKMFESES", "note": "[G11A]", "protein stability index": 2.57},
      {"variant": "DWRKNIEEKSCMEGRKKMFESES", "note": "[G11C]", "protein stability index": 1.52},
      {"variant": "DWRKNIEEKSDMEGRKKMFESES", "note": "[G11D]", "protein stability index": 1.99},
      {"variant": "DWRKNIEEKSEMEGRKKMFESES", "note": "[G11E]", "protein stability index": 3.21},
      {"variant": "DWRKNIEEKSHMEGRKKMFESES", "note": "[G11H]", "protein stability index": 1.76},
      {"variant": "DWRKNIEEKSKMEGRKKMFESES", "note": "[G11K]", "protein stability index": 3.5},
      {"variant": "DWRKNIEEKSLMEGRKKMFESES", "note": "[G11L]", "protein stability index": 2.77},
      {"variant": "DWRKNIEEKSMMEGRKKMFESES", "note": "[G11M]", "protein stability index": 1.9},
      {"variant": "DWRKNIEEKSNMEGRKKMFESES", "note": "[G11N]", "protein stability index": 1.94},
      {"variant": "DWRKNIEEKSQMEGRKKMFESES", "note": "[G11Q]", "protein stability index": 1.18},
      {"variant": "DWRKNIEEKSRMEGRKKMFESES", "note": "[G11R]", "protein stability index": 2.35},
      {"variant": "DWRKNIEEKSSMEGRKKMFESES", "note": "[G11S]", "protein stability index": 2.6},
      {"variant": "DWRKNIEEKSTMEGRKKMFESES", "note": "[G11T]", "protein stability index": 1.58},
      {"variant": "DWRKNIEEKSVMEGRKKMFESES", "note": "[G11V]", "protein stability index": 2},
      {"variant": "DWRKNIEEKSYMEGRKKMFESES", "note": "[G11Y]", "protein stability index": 1.45},
      {"variant": "DWRKNIEEKSGCEGRKKMFESES", "note": "[M12C]", "protein stability index": 2.71},
      {"variant": "DWRKNIEEKSGDEGRKKMFESES", "note": "[M12D]", "protein stability index": 2.52},
      {"variant": "DWRKNIEEKSGEEGRKKMFESES", "note": "[M12E]", "protein stability index": 2.47},
      {"variant": "DWRKNIEEKSGFEGRKKMFESES", "note": "[M12F]", "protein stability index": 2.38},
      {"variant": "DWRKNIEEKSGHEGRKKMFESES", "note": "[M12H]", "protein stability index": 2.42},
      {"variant": "DWRKNIEEKSGIEGRKKMFESES", "note": "[M12I]", "protein stability index": 3.01},
      {"variant": "DWRKNIEEKSGKEGRKKMFESES", "note": "[M12K]", "protein stability index": 2.72},
      {"variant": "DWRKNIEEKSGLEGRKKMFESES", "note": "[M12L]", "protein stability index": 2.13},
      {"variant": "DWRKNIEEKSGNEGRKKMFESES", "note": "[M12N]", "protein stability index": 2.89},
      {"variant": "DWRKNIEEKSGPEGRKKMFESES", "note": "[M12P]", "protein stability index": 1.96}
    ]}
  ]
}
